Target: tryptophan repressor (TrpR) (UniProt P0A881 P0A881:2-108)
Test: FP; dimer-DNA Kd from linked monomer-dimer/DNA binding model (preferred fit; dimer-monomer Kd 3.5 nM); 0.2 nM DNA, 10 mM K phosphate, 0.1 mM EDTA, 10% glycerol, pH

B1: fluorescein-labeled 25-mer trp operator duplex (dsDNA)
DNA 1: CTTGCACTAGTTAACTAGTCAGCAA
DNA 2: TTGCTGACTAGTTAACTAGTGCAAG
  Kd: 0.23 nM

— US5445935
